Where two headings read alike, the source gives them in different places.

Data set [1] addresses T1, E. faecalis metalloprotease GelE (bacterial supernatants) (Enterococcus faecalis, UniProt Q833V7). Format: in vitro ADME. Details: The secreted metalloprotease GelE serves E. faecalis by degrading misfolded surface proteins; endogenous in cells; host or cells: Enterococcus faecalis strains OG1RF, 30054A, 30002 (and TX5243 sprE mutant); culture supernatants. Conditions: E. faecalis 30054A and 30002 supernatants; 200 pM GLP-1; 30 min at 100°C after incubation; ELISA; n = 2. Here is the method:
If GelE was targeting the ELISA and not GLP-1, one would expect to see high levels of GLP-1 in a sample heat treated after incubation with GLP-1, ensuring no further degradation by GelE during the ELISA.
Supplementary file : FIG S4 GLP-1-inhibitory activity with heat treatment pre- and postincubation. […] Data were obtained from two independent experiments (n = 2) and are expressed as the mean ± SD. Download FIG S4, PDF file, 0.02 MB.

Data set [2] has as its target E. faecalis metalloprotease GelE (apical supernatants) (Enterococcus faecalis, UniProt Q833V7). Conditions: T84 transwell; approximately 500 pM GLP-1 in DMEM-F-12 basolateral; 16 h, 37°C, 5% CO2; ELISA; compared to DMEM-F-12 control; mean ± SD, four independent experiments. Here is the method: Growth cultures and assays of T84 cells were performed by methods described previously, with slight modifications ([26]). T84 human colonic epithelial cells (ATCC CCL-248) were propagated in tissue culture-treated T75 flasks (Cellstar), as indicated by the ATCC. When between 90 and 100% confluence, T84 cells were treated with 0.25% trypsin and plated onto 24-well, 3.0-μm polycarbonate membrane transwell filters (catalog no. 3415; Costar) at a density of 8 × 10^4 cells/well.
To prepare bacteria, on the day of the assay E. faecalis strains were subcultured 1% (vol/vol) from an overnight culture into GM17 and grown for 5 h, as described above. Whole-culture (cells plus supernatant) samples were diluted in DMEM–F-12 (Gibco) to a concentration of 1 × 10^7 CFU/ml, and supernatant samples were diluted 50% in DMEM–F-12. All samples were neutralized to a pH of 6.8 to 7 using 3 M NaOH.
A final TEER measurement was taken for each monolayer.
For orientation: An ELISA detects its analyte on a solid surface through an enzyme-linked reagent.

Data set [3] addresses T1, E. faecalis metalloprotease GelE (bacterial supernatants). Conditions: 500 pM recombinant GLP-1; 4 h at room temperature; ELISA; vs GM17 medium control; mean ± SD, n = 4. The source says: Two secreted proteases from E. faecalis are well known, the serine protease SprE and the metalloprotease GelE, both of which are regulated by the two-component, quorum-sensing fsr (faecalis system regulator) operon ([9]) (Fig. 2A). We obtained strains of E. faecalis containing null mutations in sprE (TX5243), gelE (TX5264), and fsrB (TX5266), as well as a gelE sprE double mutant (TX5128), all generated in the commonly used wild-type OG1RF E. faecalis strain ([10]).
Supernatants from E. faecalis protease mutants and controls (OG1RF, TX5266 [fsrB mutant], TX5264 [gelE mutant], TX5243 [sprE mutant], and TX5128 [gelE sprE mutant]) were collected from an overnight culture grown in GM17 aerobically at 37°C by centrifugation, as described above.

For another data set, the system named is NCI-H716 cells. Kind of data set: GLP-1 secretion screen with bacterial supernatants on NCI-H716 cells (ELISA). Format: cell-based, human. Particulars: 2 h incubation at 37°C, total GLP-1 by ELISA, medium control = 100%, PMA at 2 μM, mean ± SD, n = 3.
A further data set has as its system E. faecalis 30054A. Put plainly: Sensitivity of GLP-1-inhibitory activity to TPEN. Format: cell-based, Enterococcus faecalis. Conditions: E. faecalis 30054A grown overnight with increasing amounts of TPEN; supernatants incubated with 500 pM GLP-1, 4 h at room temperature; ELISA; n = 3. From the text: Supplementary file : FIG S1 Sensitivity of GLP-1-inhibitory activity to TPEN. […] Data were obtained from three (n = 3) independent experiments (replicates 1 to 3) with mean ± SD shown for each replicate (technical variation). Linear regression with R^2 goodness-of-fit value and P value are reported. Download FIG S1, EPS file, 0.1 MB.

The target in data set [4] is T2, E. faecalis metalloprotease GelE (bacterial supernatants) (Enterococcus faecalis, UniProt Q833V7).
T2 sequence (Q833V7 whole entry, looked up): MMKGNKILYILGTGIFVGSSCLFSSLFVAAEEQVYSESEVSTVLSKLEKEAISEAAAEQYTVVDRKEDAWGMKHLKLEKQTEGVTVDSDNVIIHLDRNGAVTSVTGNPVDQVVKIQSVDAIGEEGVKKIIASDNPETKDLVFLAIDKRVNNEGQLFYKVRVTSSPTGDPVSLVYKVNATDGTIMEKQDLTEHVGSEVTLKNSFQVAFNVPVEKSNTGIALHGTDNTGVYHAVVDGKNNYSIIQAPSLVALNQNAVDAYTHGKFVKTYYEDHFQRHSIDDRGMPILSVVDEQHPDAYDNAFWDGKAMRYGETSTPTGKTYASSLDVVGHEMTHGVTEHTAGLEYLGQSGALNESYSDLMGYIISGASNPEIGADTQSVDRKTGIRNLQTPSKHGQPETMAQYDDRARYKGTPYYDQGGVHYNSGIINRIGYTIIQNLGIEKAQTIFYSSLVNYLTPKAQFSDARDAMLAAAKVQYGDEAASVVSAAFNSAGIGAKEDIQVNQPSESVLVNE
Conditions: 4 h at room temperature; for quantity (%) of substrate remaining after incubation with supernatant, dilution 0.0001x: E. faecalis 30054A supernatant diluted 0.0001x in bacterial culture medium; for quantity (%) of substrate remaining after incubation with supernatant, dilution 0.0001x / quantity (%) of substrate remaining after incubation with supernatant, dilution 0.001x / quantity (%) of substrate remaining after incubation with supernatant, dilution 1x / quantity (%) of substrate remaining after incubation with supernatant, dilution 0.01x / quantity (%) of substrate remaining after incubation with supernatant, dilution 0.1x: recombinant substrate, Luminex (Milliplex) read-out, mean ± SD; for quantity (%) of substrate remaining after incubation with supernatant, dilution 0.0001x / quantity (%) of substrate remaining after incubation with supernatant, dilution 0.001x / degradation of substrate by GelE (in words) / quantity (%) of substrate remaining after incubation with supernatant, dilution 0.01x / quantity (%) of substrate remaining after incubation with supernatant, dilution 0.1x: n = 3; for quantity (%) of substrate remaining after incubation with supernatant, dilution 0.001x: E. faecalis 30054A supernatant diluted 0.001x in bacterial culture medium; for quantity (%) of substrate remaining after incubation with supernatant, dilution 1x: E. faecalis 30054A supernatant, 1x (undiluted), n = 3 independent experiments; for degradation of substrate by GelE (in words): undiluted supernatants of E. faecalis 30054A, 30002, OG1RF, ΔgelE, ΔsprE, S613, Luminex, Fig. 4; for quantity (%) of substrate remaining after incubation with supernatant, dilution 0.01x: E. faecalis 30054A supernatant diluted 0.01x in bacterial culture medium; for quantity (%) of substrate remaining after incubation with supernatant, dilution 0.1x: E. faecalis 30054A supernatant diluted 0.1x in bacterial culture medium. Here is the method:
To gain a better understanding of the substrate preference of GelE, we also tested the ability of diluted supernatants of E. faecalis 30054A, from 1 to 0.0001×, to degrade the same panel of metabolic substrates (Table 1).
Bacterial supernatants were collected from an overnight culture by centrifugation as described above, diluted in bacterial culture medium as indicated, and incubated with recombinant protein (GenScript; Sigma, Tocris) of each analyte for 4 h at room temperature, followed by storage at –80°C until ready for analyte quantification. The Milliplex multiplex assay was run according to the protocol provided by the manufacturer.

Method for NCI-H716 cells: NCI-H716 (American Type Culture Collection [ATCC] CCL-251) cells were grown in RPMI (ATCC) medium supplemented with 10% (vol/vol) heat-inactivated newborn calf serum (NBCS; Gibco). Cultures were maintained at a concentration of 2 × 10^5 to 8 × 10^5 cells/ml and used at passages 15 to 40 for cell studies. For cell studies, 96-well plates were coated with 100 μl of 10 mg/ml Matrigel (BD Biosciences) for 2 h at room temperature. Following coating, NCI-H716 cells were seeded at a concentration of 1 × 10^5 cells/well in Dulbecco’s modified Eagle’s medium (DMEM) supplemented with 10% (vol/vol) NBCS, as determined by trypan blue staining using a hemocytometer. Two days later, lyophilized bacterial supernatants were resuspended in Krebs buffer (Sigma) containing 0.2% (wt/vol) bovine serum albumin (BSA) and 0.03% (wt/vol) bovine bile and incubated on the NCI-H716 cells at 37°C with 5% CO2. […] Cell viability was monitored using the PrestoBlue cell viability reagent (Thermo Fisher Scientific), following the manufacturer’s instructions.

On to `CC[C@H](C)[C@H](NC(=O)[C@H](Cc1ccccc1)NC(=O)[C@H](CCC(=O)O)NC(=O)[C@H](CCCCN)NC(=O)[C@H](C)NC(=O)[C@H](C)NC(=O)[C@H](CCC(N)=O)NC(=O)CNC(=O)[C@H](CCC(=O)O)NC(=O)[C@H](CC(C)C)NC(=O)[C@H](Cc1ccc(O)cc1)NC(=O)[C@H](CO)NC(=O)[C@H](CO)NC(=O)[C@@H](NC(=O)[C@H](CC(=O)O)NC(=O)[C@H](CO)NC(=O)[C@@H](NC(=O)[C@H](Cc1ccccc1)NC(=O)[C@@H](NC(=O)CNC(=O)[C@H](CCC(=O)O)NC(=O)[C@H](C)NC(=O)[C@@H](N)Cc1c[nH]cn1)[C@@H](C)O)[C@@H](C)O)C(C)C)C(=O)N[C@@H](C)C(=O)N[C@@H](Cc1c[nH]c2ccccc12)C(=O)N[C@@H](CC(C)C)C(=O)N[C@H](C(=O)N[C@@H](CCCCN)C(=O)NCC(=O)N[C@@H](CCCNC(=N)N)C(N)=O)C(C)C` [GLP-1, glucagon-like peptide-1], for which the “GLP-1 levels, supernatants heat treated after incubation with GLP-1” value in data set [1] is “low GLP-1 levels”. Moreover, in data set [2], the “GLP-1 in the basolateral compartment, apical 30054A supernatant” value is 3.1% ± 2.68% and the “GLP-1 in the basolateral compartment, apical OG1RF supernatant” value was 1.6% ± 0.46%. Further, in data set [3], the “GLP-1 level after incubation with OG1RF (wild-type) supernatant” value is given as −0.06% ± 0.76% and the “GLP-1 level after incubation with ΔsprE mutant (TX5243) supernatant” value is −0.14% ± 0.74%.

Regarding `CCCCCCCCCCCCCC(=O)O[C@@H]1[C@@H](C)[C@@]2(O)[C@@H](C=C(CO)C[C@]3(O)C(=O)C(C)=C[C@@H]23)[C@@H]2C(C)(C)[C@]12OC(C)=O` [PMA, 4-Phorbol 12 myristate 13-acetate], the “GLP-1 compared to the medium controls” value with NCI-H716 cells amounted to 200%.

Consider `c1ccc(CN(CCN(Cc2ccccn2)Cc2ccccn2)Cc2ccccn2)nc1` [TPEN, N,N,N′,N′-tetrakis(2-pyridylmethyl)ethane-1,2-diamine], for which the “effect on GLP-1 degradation by supernatant” value with E. faecalis 30054A was “reduction in GLP-1 degradation”.

In the case of insulin, in data set [4], the “quantity (%) of substrate remaining after incubation with supernatant, dilution 0.0001x” value is recorded as 99.23 ± 1.33%; the “quantity (%) of substrate remaining after incubation with supernatant, dilution 0.001x” value came out at 99.97 ± 0.05%; the “quantity (%) of substrate remaining after incubation with supernatant, dilution 1x” value is 57.29 ± 7.69%; the “degradation of substrate by GelE (in words)” value (“degradation of substrate” below) was “less striking but still statistically significant”.

As for interleukin 6 [IL-6], in data set [4], the “quantity (%) of substrate remaining after incubation with supernatant, dilution 0.0001x” value is 95.74 ± 6.94%; the “quantity (%) of substrate remaining after incubation with supernatant, dilution 0.001x” value amounted to 95.75 ± 7.36%; the “quantity (%) of substrate remaining after incubation with supernatant, dilution 0.01x” value is listed as 99.91 ± 0.15%; the “quantity (%) of substrate remaining after incubation with supernatant, dilution 0.1x” value is reported as 99.78 ± 0.37%. Moreover, in data set [4], the “quantity (%) of substrate remaining after incubation with supernatant, dilution 1x” value is 80.28 ± 24.77% and the “degradation of substrate” value is on record as “did not observe consistent degradation”.

Take leptin: in data set [4], the “quantity (%) of substrate remaining after incubation with supernatant, dilution 0.0001x” value came out at 97.77 ± 3.87%; the “quantity (%) of substrate remaining after incubation with supernatant, dilution 0.001x” value was determined as 99.78 ± 0.39%; the “quantity (%) of substrate remaining after incubation with supernatant, dilution 0.01x” value is reported as 72.29 ± 1.72%; the “quantity (%) of substrate remaining after incubation with supernatant, dilution 0.1x” value was 7.95 ± 4.72%. For the same compound, in data set [4], the “quantity (%) of substrate remaining after incubation with supernatant, dilution 1x” value was determined as 2.15 ± 0.96%. The “quantity (%) of substrate remaining after incubation with supernatant, dilution 0.1x” value in data set [4] (listed as leptin) was 7.95% ± 4.72%.

As for “monocyte chemoattractant protein-1 [MCP-1]”, in data set [4], the “quantity (%) of substrate remaining after incubation with supernatant, dilution 0.0001x” value is reported as 98.33 ± 2.89%; the “quantity (%) of substrate remaining after incubation with supernatant, dilution 0.001x” value is given as 99.99 ± 0.01%; the “quantity (%) of substrate remaining after incubation with supernatant, dilution 0.01x” value is 99.92 ± 0.14%; the “quantity (%) of substrate remaining after incubation with supernatant, dilution 0.1x” value was 74.03 ± 44.98%. Also, in data set [4], the “degradation of substrate” value is “less striking but still statistically significant”.

On to tumor necrosis factor alpha [TNFα], for which, in data set [4], the “quantity (%) of substrate remaining after incubation with supernatant, dilution 0.0001x” value was found to be 98.12 ± 1.67%; the “quantity (%) of substrate remaining after incubation with supernatant, dilution 0.001x” value was determined as 99.28 ± 1.25%; the “quantity (%) of substrate remaining after incubation with supernatant, dilution 0.01x” value came out at 99.72 ± 0.48%; the “quantity (%) of substrate remaining after incubation with supernatant, dilution 0.1x” value is listed as 87.87 ± 19.41%. For the same compound, in data set [4], the “degradation of substrate” value is “less striking but still statistically significant”.

(Values after article PMC7021470 (mSphere, 2020).)
